Data as given in the nanobody polyreactivity screen of Harvey et al. (2022).

assay: yeast display, Sf9 membrane polyspecificity reagent, FACS + sequencing; frameworks hold sequencing errors
Procedure, shortened: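 Nanobodies from a synthetic yeast display library (Saccharomyces cerevisiae BJ5465), induced 36–48 hours with galactose, were stained 1 hour at 4 °C with 10% biotinylated, detergent-solubilized Sf9 membrane reagent, enriched on streptavidin microbeads, then FACS-sorted. Anti-HA (expression) and streptavidin (reagent binding) fluorescence set low and high (top ~1%) gates. Polyreactivity labels come from the gate of origin. Genes were colony-PCR amplified, MiSeq 2 × 250 sequenced and filtered by CDR length.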

Sequence | polyreactivity (PSR sort gate)
QVQLVESGGGLVQAGGILRLSCAASGRTVHNYVMAWYRQAPWNERELVAAITAGVGSTYYADSVKGRFTISRDNAKNTVYFQMNSLKPEDTAVYYCAARKVWGYTYGYPYYYWGQGTQETVSS | high polyreactivity
QVQLEESGGGLVQAGGRLRLSCAASVSIFGVYTMGWYRPAPGKERELVAAIRGVGSTNYADSVKGRFTISRDNAKNTVYLQMKSLKTEDTAVYYCAARYAYGMWGQGTHVTVSS | low polyreactivity
QVQLVESGGGLVQAGGSLRLSCAASGFTLGWYAMGWYRQAPGKERELVAAISRSGGSTYYADSVKGRFTISRDNAKNTVYLQMNCLKPEDTGVYYCAAEVNYAGRAVWSYYWGQGTQVTVSW | high polyreactivity
QLQLVQSGGGLVQAGGSLRLSCAASGITSPYAMGWYRQAPGKERELVARNSKGGGSTYYADSVKGRFTISRDNAKNTVYLQMNSLKPEDTAVYYCAADWYNRSRPRYYTRYYYWGQGTQVTVSS | high polyreactivity
QVQLVESGGGLVQAGGSLRLSCAASGLTFRDNAMGRYRQAPGKERELVATINSGGSTDYADSVKGRFTISRDNAKNTVYLQMNSLKPEDTAVYYCAVSREYYDRGWYSIFYWYVYWGQGTQVTVSS | low polyreactivity
QVQLVESGGGLVQAGGSLRLSCAASGLTFSWNAMGWYRQAPGKERELVAAISSRGGSTYYADSVKWRFKISRDNAKNTVYLQMNSLKPEDTAVYYCNAHGRRFLGDYGYWGQGTQVTVSS | low polyreactivity
QVQLVESGGGLVQAGGSLRLSCAASGRIFQSYAMGWYRQAPGKERELVAGISTRGGNTYYADSVKGRFTISRDNAKNTVYLQMNSLKPEDTAVYYCAKRDYGRFASDYWGQGTQVTVSS | high polyreactivity
QVQLVESGGGLVQAGGSLRLSCAASGFTFYEYSMGWYRQAPGKERELVAAINWNGGRTYYADSVKGRFTISRDNAKNTVYLQMNSLKPEDTAVYYCAARVAPKTKIYRRYYWGQGTQVTVSS | high polyreactivity
QVQLVQSRGGLVHAGGSLRFSSAATGITILRYAMGWYIQAPGKERELVAGISWDGGRTYNADSVKGRFTISRDNAKNTVFLQMNSMKPEDTEVYYCADKPSRYRVSLFDYWGHGTQVTVSS | low polyreactivity
QVQLVESGGGLVQAGGSLRLSCAASGRIFPYMGWYRQAPGKERELVAAISSRGGNTYYADSVKGRFTISRDNAKNTVYLQMNSLKPEDTAVYYCNKVKYTWYDWGQGTQVTVSS | high polyreactivity
QVQLVESGGGLVQAGGSLRLSCAASGNIFDIYAMGWYRQAPGKERELVAAISSGGSTYYADSVKGRFTISRDNAKNTVYFQMNSLKPEDTAVYYCAESRVGYYRYEYWGQGTQVTVSS | low polyreactivity
QVQLVESGGGLVQAGGSLRLSCAASGLTFVFYAMGWYRQAPGKERELVAAISSSGGSTNYADSVKGRFTISRDNAKNTVYLQMNSLKPEDTAVYYCNAALLGKQYYSNPNYDYWGQGTQVTVSS | high polyreactivity
QVQLVESGGGLVQAGGSLRLSCAASGRIFVNYAMGWYRQAPGKERELVAAITSSGGSTYYADSVKGRFTISRDNAKNTVYLQMNSLKPEDTAVYYCAARWGRGLEFDYWGQGTQVTVSS | high polyreactivity
QVQLVESGGGLVQAGGSLRLSCAASGITFPVYAMGWYRQAPGKERELVATITSSGGRTYYADSVKGRFTISRDNAKNTVYLQMNSLKPEDTAVYYCAARPPYIRTLYYWGQGTQVTVSS | high polyreactivity
QFQLVESVGGLVQAGGSLRLSFAASGFNFDYNAMGWYRQAPGKERELVAAISNTGDSTYYADSVKGRFTISRDNAKNTVYLQMNSLQPEDTAVYYCAADSLFDDYWEYDYWGQGTQVTVSS | low polyreactivity
QVQLVESGGGLVQAGGSLRLSCAASGRTFYRYAMGWYRQAPGKEREYVASITRGGGITYYADSVKGRFTISRDNAKNTVYLQMNSLKPEDSAVYYCAARQYGPRYTFYYWGQGTQVTVSS | high polyreactivity

Sequence | polyreactivity (PSR sort gate)
EVQLVESGGGLVQTGGSLRLSCAASGYIYSRYRMGWYRQAPGKGREIVAAISGGSSTNYADSVKGRFTISRDNSNNTVYLQMNSLRAEDTAVYYCAAYKIDSDTRVYWGQGTQVTVSS | low polyreactivity
QVQLVESGVGLVQAGGSLRLSCAASGLIFFFYAMGWYRQAPGKERELVASISGGGITYYADSVKGRFTISRDNAKNTVYLQMNSLKPEDTAVIKNDYWGQGTQVTVSS | low polyreactivity
QLQLVESGGGLVQAGGSLRLSCAASGITFYVYAMGCYRQAPGKERELVAAISTSGGSTYYADSVKGRFTISRDNAKNTVYFQMNSLKPEDTAVYYCAAEELRYGLYEYDYWGQGTQVTVSS | high polyreactivity
QVLLQESGGGLVQAGGSLRLSCAASGNIFTAGGMGWYRQAPVNERELVAGIGTGTSTNYADRVKGRFTISRDNAKNTVYLQMNSLKPEDTAVYYCAPAYYSGLSHWYWGQGTQVTVSS | low polyreactivity
QVQLVESGGGLVLPGGSLRLSCAASGSTLYPYAMGWYRQAPGKERELVAAITYGGTSTYYADSVKGRFTISRDNAKNTVYLQMNSQKPEDTALYYCAARGGTTIRYDYWGQGTQVTVSS | high polyreactivity
QVQLVESGGGLVQAGGSLPLSCAASGRTFHYNAMGWYRQAPGKERDLFAAISRDGGSTDYADSVKGRFTISSDNAKNTVYLQMNSLKPEDTAVYYCAAPIGKQEFSRDYDYWGQGTQVTVSS | low polyreactivity
QVQLVESGGGLVQAGGSLSLSCAASGSIFSYYDMGWYIQAPGKERELVAGISRGGSTNYADSVKGRFTISRDNAKNTVYLQMNSLKPEDPAVYYCNADYIFWLTLFDYWGQGTQVTVSS | low polyreactivity
QVQLVESGGGLVQAGGSLRLSCAASGFIFPGYAMGWYRQAPGKERELVAAITRSGGSTYYADSVKGRFTISRDNAKNTVYLQMNSLKPEDTAVYYCAAYVSGYRWGYDYWGQGTQVTVSS | high polyreactivity
QVQLVESGGGLVQAGGSLRLSCAASGRIFADNGMGWYRQAPGKERELVASITSSGGDTYYADSVKGRFTISRDNAKNTVYLQMNSLKPEDTAVYYCATEFSWLFYGVWVVTFGDDYWGQGTQVTVSS | low polyreactivity
QVQLVESGGGLVQAGGSLRLSCAASGFTYLYNAMGWYRQAPGKERELVASINSGGSTNYADSVKGRFTISRDNAKNSVYLQMNSLKPEDTAVYFCNAKRLVRKGDYWGQGTQVTVSS | low polyreactivity
QVQLVESGGGLVQAGGSLRLSCAASGSISKSYAMGWYRQAPGKERELVAVITSGGNTYYADSVKGRFTISRDNAKNTVYLQMNSLKPEDTAVYYCAADYHWYTEDDYWGQGTQVTVSS | high polyreactivity
QVQLVESGGGLVQAGGSLRLSCAASGLTFGAYAMGWYRQAPGKEREFVAAITYSGGSTNYADSVKGRFTISRDNAKNTVYLQMNSLKPEDTAVYYCNAGYYSPWAFYPYDYWGQGTQVTVSS | high polyreactivity
QVQLVESGGGLVQAGGSLRLSCAASGIIFPYYAMGWYREAPGIERELVAGLDSSGSSTNYADSVKGRFTISRDTAKTTVYLQITSLQPEDTAVYYCAKVTSSGDAVLTQIPYGYDYWGQGTQVTVSS | low polyreactivity
QVQLVESGGGLVQAGGSLRLSCAASGITFPGNAMGWYRQAPGKERELVAVISFGDGGTYYADSVKGRFTISRDNAKNTVYLQMNSLKPEDTAVYYCATDYQSTSVWGGHFVINPYDYWGQGTQVTVSS | low polyreactivity
QVQLVESGGGLVQAGGSLRLSCAASGSIFGLNAMGCYRQAPGKERELVAAISGGSTNYADSVKGRFTISRDNAKNTVYLQMNSLKPEDTAVYYCAARARRRYYYWGQGTQVTVSS | high polyreactivity
QVQLVESGGGLVQAGGSLRLSCAASGGTLGTYAMGWYRQAPGKERELVASIDSGDSTYYADSVKGRFTISRDNAKNTVYLQMNSLKPEDTAVYYCAAAYFRRYTTTWYGYEYWGQGTQVTVSS | low polyreactivity
